From the supplement of paper PMC9112550, “Optimization of the antimicrobial peptide Bac7 by deep mutational scanning” (BMC Biology, 2022)

test system: Escherichia coli TOP10; assay: shrunken log2 fold change of peptide-encoding DNA abundance (4.5 h post-induction vs induction); higher = less antimicrobial activity (less host growth inhibition); conditions: time post-induction: 4.5 h; library: site-saturation at positions 5, 18, 19, 20
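Further: peptides expressed intracellularly from a pBAD plasmid library in pooled LB shake-flask culture, induced with 0.3% L-arabinose, DNA abundance read by NGS, three biological replicates, DESeq2 with apeglm shrinkage.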

Row | Sequence | shrunken log2 fold change
1 | RRIRARPPRLPRPRPRPDYLPRP | -0.805
2 | RRIRHRPPRLPRPRPRPAVQPRP | -0.0994
3 | RRIRHRPPRLPRPRPRPDHSPRP | -0.00651
4 | RRIRDRPPRLPRPRPRPRVNPRP | -0.149
5 | RRIRCRPPRLPRPRPRPVCCPRP | 0.0914
6 | RRIRQRPPRLPRPRPRPPVFPRP | 0.247
7 | RRIRMRPPRLPRPRPRPKMNPRP | 0.501
8 | RRIRERPPRLPRPRPRPTVKPRP | -0.218
9 | RRIRTRPPRLPRPRPRPYNRPRP | -0.0176
10 | RRIRERPPRLPRPRPRPGMVPRP | 0.217
11 | RRIRQRPPRLPRPRPRPHYNPRP | -1.22
12 | RRIRLRPPRLPRPRPRPIYNPRP | -0.989
13 | RRIRYRPPRLPRPRPRPYYDPRP | -0.15
14 | RRIRMRPPRLPRPRPRPWPIPRP | -0.00141
15 | RRIRNRPPRLPRPRPRPNTKPRP | -0.306
16 | RRIRSRPPRLPRPRPRPQGCPRP | -0.0814
17 | RRIRNRPPRLPRPRPRPYPNPRP | -0.3
18 | RRIRNRPPRLPRPRPRPFYYPRP | -0.877
19 | RRIRGRPPRLPRPRPRPLMRPRP | 1.61
20 | RRIRDRPPRLPRPRPRPGSWPRP | 0.817
21 | RRIRDRPPRLPRPRPRPPDSPRP | 0.0832
22 | RRIRARPPRLPRPRPRPDKWPRP | -0.0676
23 | RRIRSRPPRLPRPRPRPHMHPRP | -0.202
24 | RRIRMRPPRLPRPRPRPTNNPRP | -0.0518
25 | RRIRCRPPRLPRPRPRPNIQPRP | -0.584

Row | Sequence | shrunken log2 fold change
26 | RRIRDRPPRLPRPRPRPSGMPRP | -0.0709
27 | RRIRMRPPRLPRPRPRPGALPRP | 0.954
28 | RRIRWRPPRLPRPRPRPHTCPRP | -0.00188
29 | RRIRQRPPRLPRPRPRPMNEPRP | -0.0541
30 | RRIRVRPPRLPRPRPRPHACPRP | 0.0734
31 | RRIRFRPPRLPRPRPRPMWRPRP | -0.0033
32 | RRIRMRPPRLPRPRPRPYILPRP | -1.08
33 | RRIRGRPPRLPRPRPRPDMTPRP | 3.09
34 | RRIRERPPRLPRPRPRPIDVPRP | -0.0231
35 | RRIRMRPPRLPRPRPRPEFKPRP | 0.335
36 | RRIRCRPPRLPRPRPRPMTWPRP | -0.383
37 | RRIRCRPPRLPRPRPRPMYRPRP | -0.319
38 | RRIRGRPPRLPRPRPRPAWIPRP | 0.347
39 | RRIRDRPPRLPRPRPRPICPPRP | 0.106
40 | RRIRLRPPRLPRPRPRPNGFPRP | -0.27
41 | RRIRKRPPRLPRPRPRPWAWPRP | -0.00174
42 | RRIRERPPRLPRPRPRPQRMPRP | -0.411
43 | RRIRMRPPRLPRPRPRPPGFPRP | 0.619
44 | RRIRLRPPRLPRPRPRPQPGPRP | 0.0607
45 | RRIRYRPPRLPRPRPRPSRQPRP | -0.114
46 | RRIRGRPPRLPRPRPRPCHQPRP | -0.0488
47 | RRIRRRPPRLPRPRPRPRVEPRP | 0.662
48 | RRIRKRPPRLPRPRPRPSILPRP | -0.11
49 | RRIRMRPPRLPRPRPRPQIHPRP | 0.149
50 | RRIRHRPPRLPRPRPRPMHGPRP | -0.00804

Row | Sequence | shrunken log2 fold change
51 | RRIRKRPPRLPRPRPRPCFVPRP | -0.0847
52 | RRIRCRPPRLPRPRPRPWARPRP | -0.188
53 | RRIRGRPPRLPRPRPRPWETPRP | 0.272
54 | RRIRTRPPRLPRPRPRPTTNPRP | -0.19
55 | RRIRRRPPRLPRPRPRPRDFPRP | 0.298
56 | RRIRTRPPRLPRPRPRPRGQPRP | 0.411
57 | RRIRVRPPRLPRPRPRPGRHPRP | 0.0728
58 | RRIRTRPPRLPRPRPRPNFFPRP | 0.0096
59 | RRIRWRPPRLPRPRPRPLEQPRP | 0.392
60 | RRIRFRPPRLPRPRPRPVNFPRP | -0.39
61 | RRIRSRPPRLPRPRPRPGKLPRP | -0.0662
62 | RRIRARPPRLPRPRPRPPFGPRP | 0.436
63 | RRIRARPPRLPRPRPRPVEMPRP | 0.196
64 | RRIRSRPPRLPRPRPRPSGKPRP | -0.202
65 | RRIRIRPPRLPRPRPRPACMPRP | -0.0966
66 | RRIRHRPPRLPRPRPRPKKGPRP | -0.0679
67 | RRIRTRPPRLPRPRPRPDSCPRP | -0.311
68 | RRIRGRPPRLPRPRPRPMIEPRP | 0.953
69 | RRIRVRPPRLPRPRPRPQVTPRP | -0.425
70 | RRIRGRPPRLPRPRPRPISVPRP | -0.0351
71 | RRIRSRPPRLPRPRPRPSAFPRP | -0.0159
72 | RRIRVRPPRLPRPRPRPSCNPRP | -0.509
73 | RRIRCRPPRLPRPRPRPFPTPRP | -0.249
74 | RRIRERPPRLPRPRPRPLAWPRP | 0.039
75 | RRIRGRPPRLPRPRPRPTLEPRP | 1.22

Row | Sequence | shrunken log2 fold change
76 | RRIRIRPPRLPRPRPRPPQFPRP | -0.195
77 | RRIRFRPPRLPRPRPRPCGMPRP | -0.24
78 | RRIRKRPPRLPRPRPRPEEEPRP | 0.0391
79 | RRIRIRPPRLPRPRPRPPRDPRP | 0.203
80 | RRIRFRPPRLPRPRPRPGHPPRP | -0.0866
81 | RRIRQRPPRLPRPRPRPYEAPRP | -0.0514
82 | RRIRGRPPRLPRPRPRPWWEPRP | 0.0256
83 | RRIRLRPPRLPRPRPRPFILPRP | -0.978
84 | RRIRGRPPRLPRPRPRPYNEPRP | -0.329
85 | RRIRLRPPRLPRPRPRPSTTPRP | -0.347
86 | RRIRQRPPRLPRPRPRPCWDPRP | -0.155
87 | RRIRSRPPRLPRPRPRPLNFPRP | -0.305
88 | RRIRNRPPRLPRPRPRPAEEPRP | 0.119
89 | RRIRRRPPRLPRPRPRPDLFPRP | 0.41
90 | RRIRMRPPRLPRPRPRPFNKPRP | -0.52
91 | RRIRTRPPRLPRPRPRPKKEPRP | -0.0512
92 | RRIRPRPPRLPRPRPRPPKAPRP | -0.0122
93 | RRIRMRPPRLPRPRPRPADVPRP | 0.0241
94 | RRIRDRPPRLPRPRPRPVGTPRP | -0.0472
95 | RRIRHRPPRLPRPRPRPDPSPRP | -0.00848
96 | RRIRLRPPRLPRPRPRPHFAPRP | -0.0165
97 | RRIRKRPPRLPRPRPRPPVQPRP | 0.83
98 | RRIRTRPPRLPRPRPRPNHWPRP | 0.0032
99 | RRIRTRPPRLPRPRPRPHFCPRP | 0.0392
100 | RRIRCRPPRLPRPRPRPCPHPRP | -0.235

Row | Sequence | shrunken log2 fold change
101 | RRIRCRPPRLPRPRPRPSRKPRP | -0.227
102 | RRIRGRPPRLPRPRPRPAVSPRP | 0.573
103 | RRIRNRPPRLPRPRPRPGIKPRP | -0.192
104 | RRIRQRPPRLPRPRPRPNDGPRP | -0.000777
105 | RRIRWRPPRLPRPRPRPDLAPRP | 0.953
106 | RRIRQRPPRLPRPRPRPYHEPRP | -0.288
107 | RRIRLRPPRLPRPRPRPCPAPRP | -0.00808
108 | RRIRLRPPRLPRPRPRPCEAPRP | 0.125
109 | RRIRSRPPRLPRPRPRPDMLPRP | 0.304
110 | RRIRPRPPRLPRPRPRPYCYPRP | -0.798
111 | RRIRSRPPRLPRPRPRPHGDPRP | 0.043
112 | RRIRRRPPRLPRPRPRPDAAPRP | 1.44
113 | RRIRRRPPRLPRPRPRPAPAPRP | 1.1
114 | RRIRERPPRLPRPRPRPQLNPRP | -0.423
115 | RRIRPRPPRLPRPRPRPMRIPRP | 0.189
116 | RRIRTRPPRLPRPRPRPETVPRP | 0.0349
117 | RRIRSRPPRLPRPRPRPKNCPRP | -0.149
118 | RRIRYRPPRLPRPRPRPDFEPRP | -0.0141
119 | RRIRVRPPRLPRPRPRPNESPRP | -0.374
120 | RRIRQRPPRLPRPRPRPSCSPRP | -0.111
121 | RRIRIRPPRLPRPRPRPQSWPRP | -0.0752
122 | RRIRNRPPRLPRPRPRPNKKPRP | -0.198
123 | RRIRIRPPRLPRPRPRPMTTPRP | 0.0113
124 | RRIRFRPPRLPRPRPRPIQLPRP | -0.336
125 | RRIRWRPPRLPRPRPRPWNWPRP | 0.173

Row | Sequence | shrunken log2 fold change
126 | RRIRTRPPRLPRPRPRPPTNPRP | 0.156
127 | RRIRVRPPRLPRPRPRPWASPRP | 0.0586
128 | RRIRVRPPRLPRPRPRPPYNPRP | -0.1
129 | RRIRGRPPRLPRPRPRPQKTPRP | -0.0351
130 | RRIRHRPPRLPRPRPRPMRFPRP | -0.00752
131 | RRIRYRPPRLPRPRPRPKGDPRP | -0.0902
132 | RRIRCRPPRLPRPRPRPNKMPRP | -0.393
133 | RRIRMRPPRLPRPRPRPSCFPRP | -0.145
134 | RRIRRRPPRLPRPRPRPTIHPRP | -0.0346
135 | RRIRMRPPRLPRPRPRPCTGPRP | -0.0444
136 | RRIRERPPRLPRPRPRPWLPPRP | -0.0302
137 | RRIRYRPPRLPRPRPRPETMPRP | -0.062
138 | RRIRPRPPRLPRPRPRPSKCPRP | -0.0749
139 | RRIRVRPPRLPRPRPRPDFPPRP | 0.0164
140 | RRIRDRPPRLPRPRPRPQGKPRP | 0.00439
141 | RRIRQRPPRLPRPRPRPFAAPRP | 0.336
142 | RRIRGRPPRLPRPRPRPFVMPRP | -0.0182
143 | RRIRTRPPRLPRPRPRPQQYPRP | -0.0717
144 | RRIRERPPRLPRPRPRPMISPRP | -0.11
145 | RRIRFRPPRLPRPRPRPLNKPRP | -0.522
146 | RRIRRRPPRLPRPRPRPNWEPRP | -0.0176
147 | RRIRARPPRLPRPRPRPRVRPRP | 0.567
148 | RRIRMRPPRLPRPRPRPQDAPRP | 0.0668
149 | RRIRTRPPRLPRPRPRPLAEPRP | 0.107
150 | RRIRFRPPRLPRPRPRPMDMPRP | 0.0169
